Assay results as given in patent US20030054515A1 (MYRIAD GENETICS, published 2003).

Columns and labels:
[1] = target: T1, Nuclear receptor coactivator 2 (NCOA2), amino acids 366-624, bait fused to the Gal4 DNA binding domain (Saccharomyces cerevisiae, UniProt P04386 1-147; Q15596 366-624); assay: yeast two-hybrid screen with NCOA2 as bait
T1 construct: Bait expressed in yeast from vector pGBTQ as a C-terminal fusion to Gal4 DBD; Residues are counted on GenBank X97674; also called GRIP 1
Excerpt: (§1) In these yeast cells, the bait is produced as a C-terminal fusion protein with the DNA binding domain of the transcription factor Gal4 (amino acids 1 to 147). A total human brain (person) cDNA library cloned into the yeast expression vector pACT2 was purchased from Clontech (human brain […] cDNA, cat. #HL4004AH), transformed into the yeast strain J692 (genotype of this strain: Mat a, ade2, his3, leu2, trp1, URA3::GAL1-lacZ LYS2::GAL1-HIS3 gal4del gal80del cyhR2), and selected for the ability to drive leucine synthesis. In these yeast cells, each cDNA is expressed as a fusion protein with the transcription activation domain of the transcription factor Gal4 (amino acids 768 to 881) and a 9 amino acid hemagglutinin epitope tag. J693 cells (Mat α type) expressing the bait were then mated with J692 cells (Mat a type) expressing proteins from the brain library. The resulting diploid yeast cells expressing proteins interacting with the bait protein were selected for the ability to synthesize tryptophan, leucine, histidine, and β-galactosidase. DNA was prepared from each clone, transformed by electroporation into E. coli strain KC8 (Clontech KC8 electrocompetent cells, cat. #C2023-1), and the cells were selected on ampicillin-containing plates in the absence of either tryptophane (selection for the bait plasmid) or leucine (selection for the brain library plasmid). […]

[2] = target: T1, Nuclear receptor coactivator 2 (NCOA2), …; assay: yeast two-hybrid; bait NCOA2 aa 366-624 (Gal4 DBD), prey from human brain library (Gal4 AD)
Excerpt: as §1

[3] = target: T1, Nuclear receptor coactivator 2 (NCOA2), …; assay: yeast two-hybrid; Gal4 DBD bait, prey from human brain library (Gal4 AD)
Excerpt: as §1, with “A” for “In these yeast cells, the bait is produced as a C-terminal fusion protein with the DNA binding domain of the transcription factor Gal4 (amino acids 1 to 147). A”, “plasmid). DNA for both plasmids was prepared and sequenced by di-deoxynucleotide chain termination method.” for “plasmid).”

binding result [3] | Binder | other results
– | PN12361, amino acids 1-223, prey clone fused to the Gal4 activation domain (other, Saccharomyces cerevisiae, not shown: small tags and cut ends, range 768-881; Prey from a human brain cDNA library in pACT2; also called novel AZ2-like protein) ANFNQSGNIADSSLSFTFTNSSNGPNLITTQTNSQALSQPIASSNVHDNFMNNEITASKIDDGNNSKPLSPGWTDQTAYNAFGITTGMFNTTTMDDVYNYLFDDEDTPPNPKKEMDALVEDDICILNHEKAHKRDTVTPVSIYSGDESVASHFALVTAYEDIKKRLKDSEKENSLLKKRIRFLEEKLIARFEEETSSVGREQVNKAYHAYREVCIDRDNLKSKLDKMNKDNSESLKVLNEQLQSKEVELLQLRTEVETQQVMRNLNPPSSNWEVEKLSCDLKIHGLEQELELMRKECSDLKIELQKAKQTDPYQEDNLKSRDLQKLSISSDNMQHAY | binding result [1]: binds
– | XE169, amino acids 1239-1439, prey clone fused to the Gal4 activation domain (other, Saccharomyces cerevisiae;human, UniProt P04386 768-881, looked up, not shown: small tags and cut ends, Prey from a human brain cDNA library in pACT2; also called SMCX) ANFNQSGNIADSSLSFTFTNSSNGPNLITTQTNSQALSQPIASSNVHDNFMNNEITASKIDDGNNSKPLSPGWTDQTAYNAFGITTGMFNTTTMDDVYNYLFDDEDTPPNPKKEDTKFLCPLCMRSRRPRLETILALLVALQRLPVRLPEGEALQCLTERAISWQGRARQALASEDVTALLGRLAELRQRLQAEPRPEEPPNYPAAPASDPLREGSGKDMPKVQGLLENGDSVTSPEKVAPEEGSGLELLSSLLPQLTGPVLELPEATRAPLEELMMEGDLLEVTLDENHSIWQLLQAGQPPDLERIRTLLE | binding result [2]: binds
binds | KIAA0619, amino acids 589-828, prey clone fused to the Gal4 activation domain (other, Saccharomyces cerevisiae;human, UniProt P04386 768-881, looked up, not shown: small tags and cut ends, Prey from a human brain cDNA library in pACT2; residues counted on GenBank AB014519; also called ROCK2) ANFNQSGNIADSSLSFTFTNSSNGPNLITTQTNSQALSQPIASSNVHDNFMNNEITASKIDDGNNSKPLSPGWTDQTAYNAFGITTGMFNTTTMDDVYNYLFDDEDTPPNPKKESKQIQQLESNNRDLQDKNCLLETAKLKLEKEFINLQSALESERRDRTHGSEIINDLQGRICGLEEDLKNGKILLAKVELEKRQLQERFTDLEKEKSNMEIDMTYQLKVIQQSLEQEEAEHKATKARLADKNKIYESIEEAKSEAMKEMEKKLLEERTLKQKVENLLLEAEKRCSLLDCDLKQSQQKINELLKQKDVLNEDVRNLTLKIEQETQKRCLTQNDLKMQTQQVNTLKMSEKQLK | –
binds | Beta catenin (B-CAT), amino acids 487-668, prey clone fused to the Gal4 activation domain (other, Saccharomyces cerevisiae;human, UniProt P04386 768-881, looked up, not shown: small tags and cut ends, Prey from a human brain cDNA library in pACT2; residues counted on GenBank Z19054) ANFNQSGNIADSSLSFTFTNSSNGPNLITTQTNSQALSQPIASSNVHDNFMNNEITASKIDDGNNSKPLSPGWTDQTAYNAFGITTGMFNTTTMDDVYNYLFDDEDTPPNPKKELHYGLPVVVKLLHPPSHWPLIKATVGLIRNLALCPANHAPLREQGAIPRLVQLLVRAHQDTQRRTSMGGTQQQFVEGVRMEEIVEGCTGALHILARDVHNRIVIRGLNTIPLFVQLLYSPIENIQRVAAGVLCELAQDKEAAEAIEAEGATAPLTELLHSRNEGVATYAAAVLFRMSEDKPQ | –
